PMC5773555, “Structural basis of SALM5-induced PTPδ dimerization for synaptic differentiation” (Nature Communications, 2018)

B1: human SALM5 LRR-Ig (wild type) (domain or fragment, UniProt Q96NI6 18-374, looked up)
chain: QICPKRCVCQILSPNLATLCAKKGLLFVPPNIDRRTVELRLADNFVTNIKRKDFANMTSLVDLTLSRNTISFITPHAFADLRNLRALHLNSNRLTKITNDMFSGLSNLHHLILNNNQLTLISSTAFDDVFALEELDLSYNNLETIPWDAVEKMVSLHTLSLDHNMIDNIPKGTFSHLHKMTRLDVTSNKLQKLPPDPLFQRAQVLATSGIISPSTFALSFGGNPLHCNCELLWLRRLSREDDLETCASPPLLTGRYFWSIPEEEFLCEPPLITRHTHEMRVLEGQRATLRCKARGDPEPAIHWISPEGKLISNATRSLVYDNGTLDILITTVKDTGAFTCIASNPAGEATQIVDLHI
modifications: N-linked glycans at N73, N330 and N339
notes: SALM5, human, LRR and Ig domains, residues 18-374; Glycans trimmed with Endo H only for crystallization; also called SALM5 LRR-Ig WT; WT; source: BacMam baculovirus-transduced HEK293 GnTI- cells, secreted, purified (Ni-NTA, gel filtration); not shown: His7, C-terminal, kept

What was measured:
[1] = target: the molecule itself; assay: crystal structure; SALM5 LRR-Ig in complex with PTPδ Ig1–3 (MeA^−), Endo H trimmed; 3.73 Å; 0.76 M potassium sodium tartrate, 0.1 M MES pH 6.0; molecular replacement
[2] = target: B1; assay: SPR; Biacore T200, 25 °C; Fc-tagged PTPδ Ig1–3 (MeA^−) amine-coupled to CM5 (about 500 RU); SALM5 LRR-Ig analytes 23.43-1500 nM; 10 mM HEPES pH 7.4, 150 mM NaCl, 3 mM EDTA, 0.05% P20; 1:1 Langmuir model; details: both partners purified
[3] = target: T1, human SALM5 LRR-Ig L327N (human, UniProt Q96NI6 18-374, L327N, introduced N-linked glycan wedge GlcNAc2Man5 (confirmed by mass spectrometry)); assay: as above; details: both partners purified
T1 construct: SALM5, human, LRR and Ig domains, residues 18-374, with L327N; source: BacMam baculovirus-transduced HEK293 GnTI- cells, secreted, purified (Ni-NTA, gel filtration); not shown: His7, C-terminal, kept
T1 sequence (looked up): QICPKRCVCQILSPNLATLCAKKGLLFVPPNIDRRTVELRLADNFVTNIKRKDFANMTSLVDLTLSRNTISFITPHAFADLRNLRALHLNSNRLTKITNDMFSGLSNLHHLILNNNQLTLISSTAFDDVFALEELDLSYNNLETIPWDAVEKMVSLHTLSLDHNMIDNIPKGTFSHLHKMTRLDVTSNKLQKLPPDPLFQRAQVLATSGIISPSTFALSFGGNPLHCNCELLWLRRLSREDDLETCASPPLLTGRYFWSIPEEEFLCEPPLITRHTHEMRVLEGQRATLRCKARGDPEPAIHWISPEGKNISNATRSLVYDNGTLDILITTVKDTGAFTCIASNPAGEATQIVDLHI

[4] = target: B1; assay: SPR; Biacore T200, 25 °C; His-tagged SALM5 LRR-Ig immobilised on CM5; His-tagged PTPδ Ig1–3 variants as analytes 2.74-6000 nM; 10 mM HEPES pH 7.4, 150 mM NaCl, 3 mM EDTA, 0.05% P20; 1:1 Langmuir model; details: both partners purified
[5] = target: T2, human SALM5 LRR-Ig R110N/E160S (human, UniProt Q96NI6 18-374, R110N | E160S, N-linked glycans added at residues R110 and N158 (glycan wedge, shown by mass spectrometry)); assay: SEC; purified SALM5 and PTPδ mixed, 1 h at 4 °C, Superdex 200 Increase in HBS (10 mM HEPES pH 7.5, 500 mM NaCl); details: both partners purified
T2 construct: SALM5, human, LRR and Ig domains, residues 18-374, with R110N and E160S; also called monomeric SALM5 R110N/E160S mutant; source: BacMam baculovirus-transduced HEK293 GnTI- cells, secreted, purified (Ni-NTA, gel filtration)
T2 sequence (looked up): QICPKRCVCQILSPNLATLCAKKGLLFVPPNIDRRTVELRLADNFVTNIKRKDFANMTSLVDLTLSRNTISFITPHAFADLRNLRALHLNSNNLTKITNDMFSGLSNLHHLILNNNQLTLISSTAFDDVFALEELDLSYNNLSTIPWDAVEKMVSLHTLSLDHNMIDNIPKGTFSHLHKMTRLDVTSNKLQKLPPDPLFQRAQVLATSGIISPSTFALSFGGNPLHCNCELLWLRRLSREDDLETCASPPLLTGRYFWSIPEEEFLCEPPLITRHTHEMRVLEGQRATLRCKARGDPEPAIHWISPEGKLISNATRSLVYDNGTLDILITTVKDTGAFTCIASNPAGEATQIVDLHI

Binder: B1
- stoichiometry N [1]: 2

B2: Fc-tagged human PTPδ Ig1–3 (MeA^−) (Fc fusion, UniProt P23468 21-320, looked up)
chain: ETPPRFTRTPVDQTGVSGGVASFICQATGDPRPKIVWNKKGKKVSNQRFEVIEFDDGSGSVLRIQPLRTPRDEAIYECVASNNVGEISVSTRLTVLREDQIPRGFPTIDMGPQLKVVERTRTATMLCAASGNPDPEITWFKDFLPVDTSNNNGRIKQLRSGALQIEQSEESDQGKYECVATNSAGTRYSAPANLYVRELREVRRVPPRFSIPPTNHEIMPGGSVNITCVAVGSPMPYVKWMLGAEDLTPEDDMPIGRNVLELNDVRQSANYTCVAMSTLGVIEAIAQITVK
notes: BacMam vector with C-terminal human IgG1 Fc plus 7x His-tag; also called PTPδ-Fc; PTPδ Ig1–3 (MeA^−)-Fc; source: BacMam baculovirus-transduced HEK293 GnTI- cells, secreted, purified (Ni-NTA, gel filtration); not shown: Fc (human IgG1), C-terminal, kept
- Kd [2]: 282 nM
- Kd [3]: 145 nM

B3: human PTPδ Ig1–3 WT (domain or fragment, UniProt P23468 21-320, looked up)
chain: ETPPRFTRTPVDQTGVSGGVASFICQATGDPRPKIVWNKKGKKVSNQRFEVIEFDDGSGSVLRIQPLRTPRDEAIYECVASNNVGEISVSTRLTVLREDQIPRGFPTIDMGPQLKVVERTRTATMLCAASGNPDPEITWFKDFLPVDTSNNNGRIKQLRSESIGGTPIRGALQIEQSEESDQGKYECVATNSAGTRYSAPANLYVRELREVRRVPPRFSIPPTNHEIMPGGSVNITCVAVGSPMPYVKWMLGAEDLTPEDDMPIGRNVLELNDVRQSANYTCVAMSTLGVIEAIAQITVK
notes: PTPδ, human, Ig domains 1-3 with MeA and MeB remained; residues 21-320 as stated for its variants; also called MeA^+/MeB^+; source: BacMam baculovirus-transduced HEK293 GnTI- cells, secreted, purified (Ni-NTA, gel filtration); not shown: His7, C-terminal, kept
- Kd [4]: 66 nM

B4: human PTPδ Ig1–3 (MeA^−) (domain or fragment, UniProt P23468 21-320, looked up)
chain: ETPPRFTRTPVDQTGVSGGVASFICQATGDPRPKIVWNKKGKKVSNQRFEVIEFDDGSGSVLRIQPLRTPRDEAIYECVASNNVGEISVSTRLTVLREDQIPRGFPTIDMGPQLKVVERTRTATMLCAASGNPDPEITWFKDFLPVDTSNNNGRIKQLRSGALQIEQSEESDQGKYECVATNSAGTRYSAPANLYVRELREVRRVPPRFSIPPTNHEIMPGGSVNITCVAVGSPMPYVKWMLGAEDLTPEDDMPIGRNVLELNDVRQSANYTCVAMSTLGVIEAIAQITVK
notes: Glycans trimmed with Endo H only for crystallization; also called MeA^−/MeB^+; source: BacMam baculovirus-transduced HEK293 GnTI- cells, secreted, purified (Ni-NTA, gel filtration); not shown: His7, C-terminal, kept
- binding result [5]: binds
- Kd [4]: 99.9 nM

B5: human PTPδ Ig1–3 (MeB^−) (domain or fragment, UniProt P23468 21-320, looked up)
chain: ETPPRFTRTPVDQTGVSGGVASFICQATGDPRPKIVWNKKGKKVSNQRFEVIEFDDGSGSVLRIQPLRTPRDEAIYECVASNNVGEISVSTRLTVLREDQIPRGFPTIDMGPQLKVVERTRTATMLCAASGNPDPEITWFKDFLPVDTSNNNGRIKQLRSESIGGTPIRGALQIEQSEESDQGKYECVATNSAGTRYSAPANLYVRVRRVPPRFSIPPTNHEIMPGGSVNITCVAVGSPMPYVKWMLGAEDLTPEDDMPIGRNVLELNDVRQSANYTCVAMSTLGVIEAIAQITVK
notes: PTPδ, human, Ig domains 1-3, residues 21-320 with the MeB splice insert ELRE 227-230 deleted; Splice code variant lacking mini exon B; also called MeA^+/MeB^−; source: BacMam baculovirus-transduced HEK293 GnTI- cells, secreted, purified (Ni-NTA, gel filtration); not shown: His7, C-terminal, kept
- Kd [4]: 1780 nM

B6: human PTPδ Ig1–3 (MeA^−/MeB^−) (domain or fragment, UniProt P23468 21-320, looked up)
chain: ETPPRFTRTPVDQTGVSGGVASFICQATGDPRPKIVWNKKGKKVSNQRFEVIEFDDGSGSVLRIQPLRTPRDEAIYECVASNNVGEISVSTRLTVLREDQIPRGFPTIDMGPQLKVVERTRTATMLCAASGNPDPEITWFKDFLPVDTSNNNGRIKQLRSGALQIEQSEESDQGKYECVATNSAGTRYSAPANLYVRVRRVPPRFSIPPTNHEIMPGGSVNITCVAVGSPMPYVKWMLGAEDLTPEDDMPIGRNVLELNDVRQSANYTCVAMSTLGVIEAIAQITVK
notes: PTPδ, human, Ig domains 1-3, residues 21-320 with both residues 181-189 (MeA) and 227-230 (MeB) deleted; Splice code variant lacking mini exons A and B; source: BacMam baculovirus-transduced HEK293 GnTI- cells, secreted, purified (Ni-NTA, gel filtration); not shown: His7, C-terminal, kept
- Kd [4]: 1870 nM
